Drawing on publication PMC11173989, this text covers stoichiometry N for 1 substance.

The target in the test is tKeima (tetrameric large Stokes shift red fluorescent protein Keima) (Montipora sp.). The test can be described thus: SEC; gel filtration on Sephacryl S-100, 10 mM Tris-HCl (pH 8.0), 200 mM NaCl. In general terms: In gel filtration, larger molecules generally elute earlier.

Regarding “tKeima (tetrameric large Stokes shift red fluorescent protein Keima)”, the stoichiometry N was determined as 4.

The term stoichiometry N denotes the number of molecules, sites or subunits per partner or assembly.
